Measurements published in publication PMC11457862.

Experiments:
[1] = molecular target: biotinylated human IL-2 (amino acids 1-133, C-terminal biotin acceptor peptide) (human) (UniProt P60568); test: BLI; biotinylated human IL-2, IL-2Rα or IL-2Rβ on streptavidin tips (Octet Red96); soluble analyte in PBSA (PBS pH 7.2, 0.1% BSA), 300 s association; kinetic fit, 1:1 binding model; IL-2/602 Cx 2:1 by the legend (Supplemental Figure 2, Supplemental Table 1)
[2] = molecular target: biotinylated human IL-2 (amino acids 1-133, C-terminal biotin acceptor peptide) (human) (UniProt P60568); test: BLI; same set-up as a1; equilibrium titration of the response at the end of the association phase, first-order fit (Figures 2 and 3, Supplemental Table 1)
[3] = molecular target: biotinylated human IL-2Rα ectodomain (amino acids 1-217) (human); test: as above
[4] = molecular target: T1, biotinylated human IL-2Rβ ectodomain (amino acids 1-214) (human) (UniProt P14784); test: as above
T1 sequence (chain, biotin on the biotin acceptor peptide (BirA ligase)): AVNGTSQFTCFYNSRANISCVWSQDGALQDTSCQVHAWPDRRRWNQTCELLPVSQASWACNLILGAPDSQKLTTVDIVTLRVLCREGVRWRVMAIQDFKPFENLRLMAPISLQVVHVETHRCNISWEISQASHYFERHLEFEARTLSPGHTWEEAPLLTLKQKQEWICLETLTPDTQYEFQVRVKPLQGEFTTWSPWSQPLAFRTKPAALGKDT

[5] = molecular target: T1, biotinylated human IL-2Rβ ectodomain (amino acids 1-214) (human); test: BLI; biotinylated human IL-2, IL-2Rα or IL-2Rβ on streptavidin tips (Octet Red96); soluble analyte in PBSA (PBS pH 7.2, 0.1% BSA), 300 s association; kinetic fit, 1:1 binding model; IL-2/602 Cx 2:1 by the legend (Supplemental Figure 2, Supplemental Table 1)
[6] = molecular target: biotinylated human IL-2 (amino acids 1-133, C-terminal biotin acceptor peptide) (human) (UniProt P60568); test: BLI; same set-up as a5; equilibrium titration, first-order fit (Supplemental Figure 6C,D, Supplemental Table 5)
[7] = molecular target: T1, biotinylated human IL-2Rβ ectodomain (amino acids 1-214) (human); test: BLI; biotinylated human IL-2 or IL-2Rβ on streptavidin tips; engineered 602 IC variants and controls in PBSA; kinetic fit, 1:1 binding model (Supplemental Figure 5, Supplemental Table 4)
[8] = molecular target: biotinylated human IL-2 (amino acids 1-133, C-terminal biotin acceptor peptide) (human) (UniProt P60568); test: BLI; same set-up as a3; equilibrium titration, first-order fit (Supplemental Figure 4A-C, Supplemental Table 4)
[9] = molecular target: T1, biotinylated human IL-2Rβ ectodomain (amino acids 1-214) (human); test: as above
[10] = molecular target: biotinylated mouse IL-2Rβ (mouse) (UniProt P16297); test: BLI; biotinylated mouse IL-2Rα or IL-2Rβ on streptavidin tips; ICs or 602 Ab in PBSA; kinetic fit, 1:1 binding model (Supplemental Figure 6E,F, Supplemental Table 1)
Sequence of biotinylated mouse IL-2Rβ (mouse) (P16297 27-539): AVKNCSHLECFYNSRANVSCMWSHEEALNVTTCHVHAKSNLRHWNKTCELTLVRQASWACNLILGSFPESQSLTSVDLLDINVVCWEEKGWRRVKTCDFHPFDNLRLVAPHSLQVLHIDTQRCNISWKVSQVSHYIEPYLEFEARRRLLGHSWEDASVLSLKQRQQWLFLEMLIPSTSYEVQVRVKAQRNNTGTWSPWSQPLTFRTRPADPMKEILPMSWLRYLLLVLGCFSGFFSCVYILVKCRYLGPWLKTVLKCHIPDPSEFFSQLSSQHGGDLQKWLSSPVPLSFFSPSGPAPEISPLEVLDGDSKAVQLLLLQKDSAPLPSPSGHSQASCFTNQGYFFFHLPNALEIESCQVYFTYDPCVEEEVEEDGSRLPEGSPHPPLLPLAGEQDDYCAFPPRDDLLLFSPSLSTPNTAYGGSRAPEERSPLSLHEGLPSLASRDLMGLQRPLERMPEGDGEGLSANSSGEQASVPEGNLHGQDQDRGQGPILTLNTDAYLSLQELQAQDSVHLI

[11] = molecular target: biotinylated mouse IL-2Rα (mouse) (UniProt P01590); test: as above
Sequence of biotinylated mouse IL-2Rα (mouse) (P01590 22-268): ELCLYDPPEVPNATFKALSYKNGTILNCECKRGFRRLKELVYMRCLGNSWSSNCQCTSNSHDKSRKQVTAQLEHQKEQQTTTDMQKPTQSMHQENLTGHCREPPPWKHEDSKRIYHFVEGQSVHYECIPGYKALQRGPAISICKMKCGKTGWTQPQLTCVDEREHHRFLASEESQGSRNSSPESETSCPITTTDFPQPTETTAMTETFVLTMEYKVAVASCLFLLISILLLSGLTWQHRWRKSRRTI

[12] = molecular target: biotinylated mouse IL-2Rβ (mouse) (UniProt P16297); test: BLI; same set-up as a7; equilibrium titration, first-order fit (Supplemental Figure 6G,H, Supplemental Table 1)
[13] = molecular target: biotinylated human IL-2Rα ectodomain (amino acids 1-217) (human); test: BLI; biotinylated human IL-2, IL-2Rα or IL-2Rβ on streptavidin tips (Octet Red96); soluble analyte in PBSA (PBS pH 7.2, 0.1% BSA), 300 s association; kinetic fit, 1:1 binding model; IL-2/602 Cx 2:1 by the legend (Supplemental Figure 2, Supplemental Table 1)
[14] = molecular target: biotinylated human IL-2 (amino acids 1-133, C-terminal biotin acceptor peptide) (human) (UniProt P60568); test: BLI; biotinylated human IL-2 or IL-2Rβ on streptavidin tips; engineered 602 IC variants and controls in PBSA; kinetic fit, 1:1 binding model (Supplemental Figure 5, Supplemental Table 4)

Sequence of IL-2/602 complex (human IL-2 mixed with 602 antibody) (VH): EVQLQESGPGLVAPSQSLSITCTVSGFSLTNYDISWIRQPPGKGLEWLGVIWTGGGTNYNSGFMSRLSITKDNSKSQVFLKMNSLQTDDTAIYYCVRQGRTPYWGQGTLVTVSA
Sequence of IL-2/602 complex (human IL-2 mixed with 602 antibody) (VL): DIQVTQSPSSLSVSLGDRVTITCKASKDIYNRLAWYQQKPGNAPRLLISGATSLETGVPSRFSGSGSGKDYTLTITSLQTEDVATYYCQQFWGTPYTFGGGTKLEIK

Row | Substance | Kd [1] | Kd [2] | Kd [3] | Kd [4] | Kd [5] | Kd [6] | Kd [7] | Kd [8] | Kd [9] | Kd [10] | Kd [11] | Kd [12] | Kd [13] | Kd [14]
1 | 602 immunocytokine with 35-amino-acid linker (IL-2-(G4S)7-602 light chain + 602 heavy chain) (from UniProt P60568 21-153) | 143 nM | > 2000 nM | > 2000 nM | 5 nM | 4.22 nM | > 2000 nM | 0.26 nM | > 2000 nM | 5.4 nM |  |  |  |  | 
2 | human IL-2 (amino acids 1-133), soluble (from UniProt P60568 21-153) (ligand) |  |  | 7.3 nM |  |  |  |  |  |  |  |  |  | 3.2 nM | 

Second part, the substance after the results:

Row | Kd [1] | Kd [2] | Kd [3] | Kd [4] | Kd [5] | Kd [6] | Kd [7] | Kd [8] | Kd [9] | Kd [10] | Kd [11] | Kd [12] | Kd [13] | Kd [14] | Substance
3 | 88.3 nM | 905 nM | > 2000 nM | 8.4 nM |  |  |  |  |  |  |  |  |  |  | 602 immunocytokine with 15-amino-acid linker (IL-2-(G4S)3-602 light chain + 602 heavy chain) (from UniProt P60568 21-153)
4 | 76.9 nM | 941 nM | > 2000 nM |  | 3.66 nM |  |  |  |  |  |  |  |  |  | 602 immunocytokine with 25-amino-acid linker (IL-2-(G4S)5-602 light chain + 602 heavy chain) (from UniProt P60568 21-153)
5 |  | > 2000 nM | 5.2 nM |  | 0.18 nM | > 2000 nM |  |  |  | > 10000 nM | 4.74 nM | > 10000 nM |  |  | Control immunocytokine (IL-2-(G4S)7-light chain of anti-fluorescein antibody 4-4-20 + 4-4-20 heavy chain) (from UniProt P60568 21-153)
6 | 10.6 nM | 103 nM |  | 5.2 nM | 3.89 nM | 168 nM | 0.3 nM | 74 nM | 6 nM |  |  |  | 0.55 nM | 13.3 nM | IL-2/602 complex (human IL-2 mixed with 602 antibody) (from UniProt P60568 21-153)
